Source: publication PMC10858392 (Cell reports, 2023)
Values belong to the binder of their own block, whether it stands above or below them.

Tests used:
Assay in all cases: ELISA
[1] = biological target: albumin from human serum, low endotoxin (Homo sapiens, UniProt P02768)
[2] = biological target: lysozyme from chicken egg white (Gallus gallus, UniProt P00698)
human insulin = human insulin (Homo sapiens, UniProt P01308)
ubiquitin (in-house) = ubiquitin (in-house) (Homo sapiens, UniProt P0CG47)

Chain of lysozyme from chicken egg white (P00698 19-147): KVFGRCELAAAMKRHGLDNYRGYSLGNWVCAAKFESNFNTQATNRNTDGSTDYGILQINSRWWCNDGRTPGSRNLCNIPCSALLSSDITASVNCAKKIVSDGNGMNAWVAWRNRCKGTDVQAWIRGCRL
Chain of human insulin (P01308 whole entry, looked up): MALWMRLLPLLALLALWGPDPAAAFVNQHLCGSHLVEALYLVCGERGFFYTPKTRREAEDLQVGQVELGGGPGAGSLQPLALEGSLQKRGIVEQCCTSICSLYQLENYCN
Chain of albumin from human serum, low endotoxin (P02768 25-609): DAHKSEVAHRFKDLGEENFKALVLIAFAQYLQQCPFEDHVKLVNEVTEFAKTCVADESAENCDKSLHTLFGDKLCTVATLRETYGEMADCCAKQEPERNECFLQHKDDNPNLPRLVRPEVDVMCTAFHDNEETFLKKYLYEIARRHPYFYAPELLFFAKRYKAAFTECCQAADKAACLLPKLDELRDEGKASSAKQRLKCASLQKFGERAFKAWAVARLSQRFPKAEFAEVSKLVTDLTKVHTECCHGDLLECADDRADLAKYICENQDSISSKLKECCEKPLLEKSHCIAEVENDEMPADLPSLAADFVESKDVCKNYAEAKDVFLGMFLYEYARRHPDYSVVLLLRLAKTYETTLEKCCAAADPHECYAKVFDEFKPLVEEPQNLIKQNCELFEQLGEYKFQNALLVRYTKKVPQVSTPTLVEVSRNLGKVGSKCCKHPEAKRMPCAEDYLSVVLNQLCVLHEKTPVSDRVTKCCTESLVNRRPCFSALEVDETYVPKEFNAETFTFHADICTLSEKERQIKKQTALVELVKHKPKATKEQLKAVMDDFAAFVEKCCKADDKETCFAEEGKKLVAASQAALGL

- binding result [2]: binds
- binding result (human insulin): binds
- binding result (ubiquitin (in-house)): binds
B1: 338E6 mAb (polyreactive mouse IgA monoclonal antibody, full-length) (antibody, V domains shown)
VH: EVKLEESGGDLVKPGGSLKLSCAASGFTFSSYGMSWVRQTPDKRLEWVATISSGGSYTYYPDSVKGRFTISRDNAKNTLYLQMSSLKSEDTAMYYCARRGFYFDYWGQGTTLTVSS
VL: ETTVTQSQKFMSTSVGDRVSVTCKASQNVGTNVAWYQQKPGQSPKALIYSASYRYSGVPDRFTGSGSGTDFTLTISNVQSEDLAEYFCQQYNSYPLTFGQGTKVEIK
- binding result [1]: binds

- binding result [2]: binds
- binding result (human insulin): binds
- binding result (ubiquitin (in-house)): binds
B2: 43G10 mAb (polyreactive mouse IgA monoclonal antibody, full-length) (antibody, V domains shown)
VH: QVQLKQSGPGLVKPSQSLSLTCSVTGYSITSGFYWTWIRQFPGNKVEWMGYINYAGNNDYNPSLKDRISITRDTSKNQFFLKLNSVTSEDTATYYCTRGTGRIEYWGQGTSVTVSS
VL: DIKMTQSPSSLAVSVGEKVSMSCKSSQSLLYSYNQKNYLAWYQQAPGQSPKLLIYWASTRESGVPDRFTGSGSGTDFTLTISNVKTEDLAVYYCQQYHSHPLTFGQGTKVEIK
- binding result [1]: binds
